Measured values published in patent US10280205B2, “Method for treating cancer with an activated T lymphocyte that selectively recognizes a cancer cell consisting of specific peptide” (immatics biotechnologies GmbH, priority 2015, dated 2019).

Molecular target: HLA-A*02:01 (Homo sapiens, UniProt P04439, D140Y/D185E/D98H/E176V/E277Q/G131W/G231S/I119V/I121R/I166T/I218V/L300P/L318F/N151K/N90K/P208A/P217A/Q86G/Q94H/R138H/R169H/T345S)
Experiment: MHC binding assay: UV-ligand exchange with beta2m ELISA (exchange yield)
Details: binding to HLA-A*02:01, β2m ELISA
Description: Candidate peptides for T cell based therapies according to the present invention were further tested for their MHC binding capacity (affinity). The individual peptide-MHC complexes were produced by UV-ligand exchange, where a UV-sensitive peptide is cleaved upon UV-irradiation, and exchanged with the peptide of interest as analyzed. Only peptide candidates that can effectively bind and stabilize the peptide-receptive MHC molecules prevent dissociation of the MHC complexes. To determine the yield of the exchange reaction, an ELISA was performed based on the detection of the light chain (β2m) of stabilized MHC complexes. The assay was performed as generally described in Rodenko et al. (Rodenko et al., 2006).
96 well MAXISorp plates (NUNC) were coated over night with 2 ug/ml streptavidin in PBS at room temperature, washed 4× and blocked for 1 h at 37° C. in 2% BSA containing blocking buffer. […] Peptide-MHC monomers of the UV-exchange reaction were diluted 100 fold in blocking buffer. Samples were incubated for 1h at 37° C., washed four times, incubated with 2 ug/ml HRP conjugated anti-β2m for 1h at 37° C., washed again and detected with TMB solution that is stopped with […]. Absorption was measured at 450 nm. Candidate peptides that show a high exchange yield (preferably higher than 50%, most preferred higher than 75%) are generally preferred for a generation and production of antibodies or fragments thereof, and/or T cell receptors or fragments thereof, as they show sufficient avidity to the MHC molecules and prevent dissociation of the MHC complexes.

| Substance | Peptide exchange (MHC class I binding score, peptide exchange yield) |
| --- | --- |
| 1 (SLMEPPAVLLL; listed as Homo sapiens) [compound 1] | “+++” (≥50 = +++) |
| 4 (GIMEHITKI; listed as Homo sapiens) [compound 4] | “++++” (≥75% = ++++) |
| 5 (HLTEVYPEL; listed as Homo sapiens) [compound 5] | “+++” (≥50 = +++) |
| 6 (VLVSDGVHSV; listed as Homo sapiens) [compound 6] | “+++” (≥50 = +++) |
| 7 (SLVGLLLYL; listed as Homo sapiens) [compound 7] | “++++” (≥75% = ++++) |
| 9 (GAAKDLPGV; listed as Homo sapiens) [compound 9] | “++” (≥20% = ++) |
| 10 (FLATFPLAAV; listed as Homo sapiens) [compound 10] | “++++” (≥75% = ++++) |
| 12 (SLWPDPMEV; listed as Homo sapiens) [compound 12] | “+++” (≥50 = +++) |
| 13 (YLMDESLNL; listed as Homo sapiens) [compound 13] | “+++” (≥50 = +++) |
| 14 (AAYGGLNEKSFV; listed as Homo sapiens) [compound 14] | “+++” (≥50 = +++) |
| 15 (VLLTFKIFL; listed as Homo sapiens) [compound 15] | “++” (≥20% = ++) |
| 16 (VLFQGQASL; listed as Homo sapiens) [compound 16] | “+++” (≥50 = +++) |
| 17 (GLLPGDRLVSV; listed as Homo sapiens) [compound 17] | “+++” (≥50 = +++) |
| 18 (YLVAKLVEV; listed as Homo sapiens) [compound 18] | “++” (≥20% = ++) |
| 19 (FMVDNEAIYDI; listed as Homo sapiens) [compound 19] | “++++” (≥75% = ++++) |
| 20 (RMIEYFIDV; listed as Homo sapiens) [compound 20] | “+++” (≥50 = +++) |
| 21 (VLDELDMEL; listed as Homo sapiens) [compound 21] | “++” (≥20% = ++) |
| 22 (IMEENPGIFAV; listed as Homo sapiens) [compound 22] | “+++” (≥50 = +++) |
| 23 (VLLDDIFAQL; listed as Homo sapiens) [compound 23] | “+++” (≥50 = +++) |
| 24 (SLSDGLEEV; listed as Homo sapiens) [compound 24] | “++” (≥20% = ++) |
| 25 (FLPDEPYIKV; listed as Homo sapiens) [compound 25] | “+++” (≥50 = +++) |

| Substance | Peptide exchange (MHC class I binding score, peptide exchange yield) |
| --- | --- |
| 26 (ALLELAEEL; listed as Homo sapiens) [compound 26] | “+++” (≥50 = +++) |
| 27 (ILADIVISA; listed as Homo sapiens) [compound 27] | “+++” (≥50 = +++) |
| 28 (QLLDETSAITL; listed as Homo sapiens) [compound 28] | “+++” (≥50 = +++) |
| 29 (KMLGIPISNILMV; listed as Homo sapiens) [compound 29] | “+++” (≥50 = +++) |
| 30 (LILDWVPYI; listed as Homo sapiens) [compound 30] | “+++” (≥50 = +++) |
| 31 (YLAPELFVNV; listed as Homo sapiens) [compound 31] | “++” (≥20% = ++) |
| 32 (KLDDLTQDLTV; listed as Homo sapiens) [compound 32] | “++” (≥20% = ++) |
| 33 (VLLSLLEKV; listed as Homo sapiens) [compound 33] | “++” (≥20% = ++) |
| 34 (ILVEADSLWVV; listed as Homo sapiens) [compound 34] | “+++” (≥50 = +++) |
| 35 (KINDTIYEV; listed as Homo sapiens) [compound 35] | “+++” (≥50 = +++) |
| 39 (SVAPNLPAV; listed as Homo sapiens) [compound 39] | “+++” (≥50 = +++) |
| 40 (TLLVKVFSV; listed as Homo sapiens) [compound 40] | “+++” (≥50 = +++) |
| 41 (SLMPHIPGL; listed as Homo sapiens) [compound 41] | “+++” (≥50 = +++) |
| 42 (VLLQKIVSA; listed as Homo sapiens) [compound 42] | “+++” (≥50 = +++) |
| 43 (VLSSLEINI; listed as Homo sapiens) [compound 43] | “++” (≥20% = ++) |
| 44 (ILDPISSGFLL; listed as Homo sapiens) [compound 44] | “++” (≥20% = ++) |
| 45 (SLWQDIPDV; listed as Homo sapiens) [compound 45] | “+++” (≥50 = +++) |
| 46 (ILTEENIHL; listed as Homo sapiens) [compound 46] | “+++” (≥50 = +++) |
| 47 (ILLSVPLLVV; listed as Homo sapiens) [compound 47] | “++” (≥20% = ++) |
| 49 (YLPAVFEEV; listed as Homo sapiens) [compound 49] | “+++” (≥50 = +++) |
| 50 (SLSELEALM; listed as Homo sapiens) [compound 50] | “+++” (≥50 = +++) |

| Substance | Peptide exchange (MHC class I binding score, peptide exchange yield) |
| --- | --- |
| 51 (LLPDLEFYV; listed as Homo sapiens) [compound 51] | “++++” (≥75% = ++++) |
| 52 (FLLAHGLGFLL; listed as Homo sapiens) [compound 52] | “++++” (≥75% = ++++) |
| 53 (KMIETDILQKV; listed as Homo sapiens) [compound 53] | “++++” (≥75% = ++++) |
| 54 (SLLEQGKEPWMV; listed as Homo sapiens) [compound 54] | “+++” (≥50 = +++) |
| 55 (SLLDLETLSL; listed as Homo sapiens) [compound 55] | “++++” (≥75% = ++++) |
| 57 (TLAELQPPVQL; listed as Homo sapiens) [compound 57] | “+++” (≥50 = +++) |
| 59 (IMEDIILTL; listed as Homo sapiens) [compound 59] | “+++” (≥50 = +++) |
| 61 (FLQGYQLHL; listed as Homo sapiens) [compound 61] | “++++” (≥75% = ++++) |
| 62 (VLLDVSAGQLLM; listed as Homo sapiens) [compound 62] | “++++” (≥75% = ++++) |
| 63 (YLLPSGGSVTL; listed as Homo sapiens) [compound 63] | “++” (≥20% = ++) |
| 64 (YAAPGGLIGV; listed as Homo sapiens) [compound 64] | “++” (≥20% = ++) |
| 66 (FLDENIGGVAV; listed as Homo sapiens) [compound 66] | “+++” (≥50 = +++) |
| 67 (TLLAEALVTV; listed as Homo sapiens) [compound 67] | “+++” (≥50 = +++) |
| 68 (SLMELPRGLFL; listed as Homo sapiens) [compound 68] | “++++” (≥75% = ++++) |
| 69 (FQLDPSSGVLVTV; listed as Homo sapiens) [compound 69] | “+++” (≥50 = +++) |
| 70 (GLLDYPVGV; listed as Homo sapiens) [compound 70] | “+++” (≥50 = +++) |
| 71 (GILARIASV; listed as Homo sapiens) [compound 71] | “+++” (≥50 = +++) |
| 72 (SLLELDGINL; listed as Homo sapiens) [compound 72] | “+++” (≥50 = +++) |
| 73 (NIFDLQIYV; listed as Homo sapiens) [compound 73] | “+++” (≥50 = +++) |
| 74 (ALLDPEVLSIFV; listed as Homo sapiens) [compound 74] | “+++” (≥50 = +++) |
